Target: Grb2, endogenous in Cos-7 cells (African green monkey (endogenous in Cos-7))
Test: co-IP

fold excess of the Sos-1–Grb2 complex over the Sos-1–E3b1 complex (co-IP): 10 fold
Substance: Sos-1, endogenous in Cos-7 cells (natural protein)

— PMC2173577
